We go through two molecules from publication PMC3627579.

Common to all, as to assay: ITC
The target in data set [1] is T1, TRBP-D12 (Homo sapiens, UniProt Q15633 19-228).
T1 sequence: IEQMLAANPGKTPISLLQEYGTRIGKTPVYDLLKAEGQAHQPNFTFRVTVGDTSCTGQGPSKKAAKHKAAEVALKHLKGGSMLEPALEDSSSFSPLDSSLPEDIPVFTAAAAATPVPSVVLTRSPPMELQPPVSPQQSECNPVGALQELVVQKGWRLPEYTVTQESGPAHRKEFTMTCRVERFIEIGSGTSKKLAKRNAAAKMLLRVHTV

A further data set deals with T2, TRBP-D2 (Homo sapiens, UniProt Q15633 157-228).
T2 sequence: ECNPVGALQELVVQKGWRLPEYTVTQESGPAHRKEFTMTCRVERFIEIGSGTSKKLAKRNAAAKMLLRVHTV

Data set [2] has as its target T1, TRBP-D12. The source holds these as a separate data set.
The next data set concerns the target T3, TRBP-D1 (Homo sapiens, UniProt Q15633 19-99).
T3 sequence: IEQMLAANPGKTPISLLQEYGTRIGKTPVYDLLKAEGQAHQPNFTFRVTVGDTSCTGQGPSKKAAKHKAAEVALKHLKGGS

Where two headings read alike, the source gives them in different places.

B1: miR-155/miR-155* (dsRNA)
RNA 1: GGAAUGCUAAUCGUGAUAGGCCU
RNA 2: GGCCUACAUAUUAGCAUUCCCA
Broadly, the Kd is the concentration at which binding is half-saturated. A lower Kd goes with a tighter complex. Molecule B1 returned an equilibrium dissociation constant (Kd) with TRBP-D12 [1] of 1000 ± 700 nM.

B2: pre-miR-155 (structured_RNA)
RNA: GGAAUGCUAAUCGUGAUAGGGGUUUUUGCCUCCAACUGACUCCUACAUAUUAGCAUUCCCA
In the case of B2, the Kd with TRBP-D2 came to 3700 ± 500 nM; with TRBP-D12 [2], 500 nM; with TRBP-D1, 15400 ± 800 nM.
